This is an account of results in US20090203760A1 (UNIVERSITY OF QUEENSLAND, published 2009).

The target of experiment [1] is human C5a receptor (C5aR) on intact human polymorphonuclear leukocytes (PMNs) (human) (UniProt P21730). The experiment can be described thus: cell-based or functional assay.
Experiment [2] has the same target. The experiment can be described thus: 50% inhibition of [125I]C5a binding to intact PMNs.
The target is the same in experiment [3]. The experiment can be described thus: 50% inhibition of [125I]C5a binding to intact PMNs; column head prints 'IC50 (M)', the pD2 shows µM.
Experiment [4] addresses T1, human C5a receptor (C5aR) on intact human polymorphonuclear leukocytes (PMNs) (human, UniProt P21730 1-350).
T1 construct: whole, on cells; Native receptor on fresh human PMNs; not a recombinant construct; also called PMN C5aR
T1 sequence (looked up): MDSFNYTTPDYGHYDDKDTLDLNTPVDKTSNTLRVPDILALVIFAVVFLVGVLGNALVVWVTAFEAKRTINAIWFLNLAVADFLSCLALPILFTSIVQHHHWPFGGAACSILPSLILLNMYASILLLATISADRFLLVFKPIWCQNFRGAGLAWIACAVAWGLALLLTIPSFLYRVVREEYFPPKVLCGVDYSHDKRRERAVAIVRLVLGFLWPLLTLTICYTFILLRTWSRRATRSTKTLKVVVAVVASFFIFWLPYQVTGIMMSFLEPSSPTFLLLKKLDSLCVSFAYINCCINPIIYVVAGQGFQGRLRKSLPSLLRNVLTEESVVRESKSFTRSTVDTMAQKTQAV
The experiment can be described thus: competition with 125I-C5a for binding to intact human PMNs, 4 °C.

Experiment [5] concerns the target T1, human C5a receptor (C5aR) on intact …. The experiment can be described thus: 50% inhibition of [125I]C5a binding to intact PMNs; column head prints 'IC50 (M)', the pD2 shows µM.
For experiment [6] the target is unchanged. As to the kind of experiment: cell-based or functional assay.
Experiment [7] has the same target. As to the kind of experiment: cell-based or functional assay. This is another data set of the same source.
Experiment [8] shares this target. The experiment can be described thus: unlabelled C5a competing with 125I-C5a for binding to intact human PMNs, 4 °C.

Bridges are numbered along the chain shown (N, C = ends). Where no end group is shown, it is not given here. [ ]: non-standard residue; d: D form. NMeF = CN[C@@H](Cc1ccccc1)C(=O)O; dCha = N[C@H](CC1CCCCC1)C(=O)O

The IC50 is the concentration that inhibits the measured activity by half. Low values mean greater potency in that assay, high ones weaker potency in that assay. Take F-[KPdChaWr] (peptide): in experiment [1], the IC50: 50% inhibition in the ability of C5a (100 nM) to cause the release of MPO from PMNs was 2.8 µM and the pD2: 50% inhibition in the ability of C5a (100 nM) to cause the release of MPO from PMNs came out at 5.55. In experiment [2], the IC50 was found to be 8.1 µM and the pD2 was found to be 5.09.

Turning to F-[KPdChaWR] (peptide), in experiment [1], the IC50: 50% inhibition in the ability of C5a (100 nM) to cause the release of MPO from PMNs stood at 0.2 µM and the pD2: 50% inhibition in the ability of C5a (100 nM) to cause the release of MPO from PMNs was determined as 6.69. Moreover, in experiment [2], the IC50 is 0.3 µM and the pD2 was determined as 6.5.

As to F-[OPdChaWR] (peptide), in experiment [1], the IC50: 50% inhibition in the ability of C5a (100 nM) to cause the release of MPO from PMNs amounted to 0.04 µM and the pD2: 50% inhibition in the ability of C5a (100 nM) to cause the release of MPO from PMNs worked out at 7.41. In experiment [2], this molecule had an IC50 of 0.06 µM and a pD2 of 7.21.

AcF-[KPdChaWr] (peptide) had a pD2: 50% inhibition in the ability of C5a (100 nM) to cause the release of MPO from PMNs in experiment [1] of 7.07.

As to AcF-[OPdChaWr] (peptide), in experiment [1], the in vitro activity as a C5a antagonist in PMNs, against 17 came out at 100 fold and the pD2: 50% inhibition in the ability of C5a (100 nM) to cause the release of MPO from PMNs was found to be 7.3. The pD2 in experiment [2] is 4.6.

In experiment [1], F-[OPdChaWr] (peptide) had an IC50: 50% inhibition in the ability of C5a (100 nM) to cause the release of MPO from PMNs of 1.6 µM and a pD2: 50% inhibition in the ability of C5a (100 nM) to cause the release of MPO from PMNs of 5.79. Moreover, in experiment [2], the IC50 came out at 3.1 µM and the pD2 came to 5.51.

B1: [FWPdChaWr] (peptide)
peptide: cyclo(FWP[dCha]W[dR])
SMILES: N=C(N)NCCC[C@H]1NC(=O)[C@H](Cc2c[nH]c3ccccc23)NC(=O)[C@@H](CC2CCCCC2)NC(=O)[C@@H]2CCCN2C(=O)[C@H](Cc2c[nH]c3ccccc23)NC(=O)[C@H](Cc2ccccc2)NC1=O
B1 returned a pD2 in experiment [2] of 4.37. The molecule also registered an IC50 in experiment [3] of 43 µM.

B2: AcF-[KKdChaWr] (peptide)
peptide: Ac-FKK[dCha]W[dR]
modifications: lactam 2-C
SMILES: CC(=O)N[C@@H](Cc1ccccc1)C(=O)N[C@H]1CCCCNC(=O)[C@@H](CCCNC(=N)N)NC(=O)[C@H](Cc2c[nH]c3ccccc23)NC(=O)[C@@H](CC2CCCCC2)NC(=O)[C@H](CCCCN)NC1=O
As to B2, in experiment [1], the IC50: 50% inhibition in the ability of C5a (100 nM) to cause the release of MPO from PMNs came out at 13 µM and the pD2: 50% inhibition in the ability of C5a (100 nM) to cause the release of MPO from PMNs was determined as 4.88. In experiment [2], the pD2 came out at 3.94. The half-maximal inhibitory concentration (IC50) in experiment [3] is 116 µM.

B3: MeFKP(dCha)WR (peptide)
peptide: [NMeF]KP[dCha]WR
notes: Linear; 7 with the chirality of Arg changed; also called ID NO:9
Turning to B3, the concentration for half-maximal inhibition (IC50) in experiment [4] is 11 µM. This lies in the double-digit micromolar range.

B4: AcKF-[OPdChaWr] (peptide)
peptide: KFXPXWR
modifications: N-acetyl-Lys at 1; ornithine (O) at 3; D-cyclohexylalanine (dCha) at 5; D-Arg at 7; cyclic over residues 3-7 (ornithine side chain to C-terminus)
notes: Cyclic
Take B4: the IC50 in experiment [5] turned out to be 11 µM.

B5: MeFKP(dCha)Wr-CONH2 (peptide)
peptide: [NMeF]KP[dCha]W[dR]-NH2
notes: Linear; C-terminal amide of 7; also called ID NO:8
As to B5, the “antagonist activity against 7 (myeloperoxidase release from human PMNs)” value in experiment [6] was around 5 fold. Further, in experiment [7], the “Antagonist Potency IC50: 50% reduction in myeloperoxidase secretion from human PMNs mediated by 100 nM C5a” value amounted to 0.5 µM. Moreover, the IC50 in experiment [4] was 14 µM.

B6: AcF-[KMdChaWr] (peptide)
peptide: FKMXWR
modifications: N-acetyl-Phe at 1; D-cyclohexylalanine (dCha) at 4; D-Arg at 6; cyclic over residues 2-6 (Lys side chain to C-terminus)
Molecule B6 registered a pD2 in experiment [2] of 4.81. Also, the IC50 in experiment [3] turned out to be 15 µM.

B7: MeFKPLWR (peptide)
peptide: [NMeF]KPLWR
notes: Linear; dCha replaced by Leu; also called 10; ID NO:10
On to B7, for which the “Antagonist Potency IC50: 50% reduction in myeloperoxidase secretion from human PMNs mediated by 100 nM C5a” value in experiment [7] was above 1000 µM. In experiment [4], this molecule had an IC50 of 144 µM.

B8: human recombinant C5a (ligand, UniProt P01031 678-751, looked up)
chain: TLQKKIEEIAAKYKHSVVKKCCYDGACVNNDETCEQRAARISLGPRCIKAFTECCVVASQLRANISHKDMQLGR
modifications: tracer form: Hunter/Bolton labelled 125I (New England Nuclear); unlabelled competitor form: none stated
notes: mature
Molecule B8 yielded an IC50 in experiment [8] of 0.0008 µM.
